US20140356358A1 (Amgen, published 2014)
Changes are numbered by the printed parent chain. Names may count otherwise. Like-named read-outs stand apart in the source and are kept apart here. Each block holds one binder with its values, some of them ahead of it.

Columns and labels:
[1] = molecular target: T1, human neonatal Fc receptor (hFcRn) (human, UniProt P55899 24-290; P61769 21-119); experiment: phage ELISA pH 6;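 note: higher score means stronger binding and above about 3 to 5 exceeds background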
T1 construct: Biotinylated in the ELISA, Octet and yeast assays; also called human FcRn; huFcRn
Experimental: (§1) Approximately 100 μL of biotinylated human FcRn at 2 μg/mL was added to the wells of MAXISORP™ plates coated with 10 μg/mL streptavidin. After washing with PBS plus 0.05% Tween 20 (PBST) five times, phage from the overnight cultures in MES buffer at pH 6.0 or pH 7.4 were added to the plates and incubated at room temperature for 1 hr. A horseradish peroxidase (HRP)-conjugated anti-M13 antibody was used to detect the binding phage, and the plates were scored by a microtiter plate reader using a wavelength in the visible range.
(§2) Binding was assessed by a quantitative enzyme-linked immunoadsorbent assay (ELISA). The ELISA scores reflect binding affinity, with higher scores meaning higher affinity. Typically, scores higher than about 3˜5 indicate binding above background. For library L5, the insertions are between the N169 and G170 according to the numbering in FIG. 2. For libraries 6A and 6B, the insertions are between L143 and T144 according to the numbering in FIG. 2.

[2] = molecular target: T1, human neonatal Fc receptor (hFcRn); experiment: phage ELISA pH 7.4;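 note: higher score means stronger binding and above about 3 to 5 exceeds background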
Experimental: as §1, §2

[3] = molecular target: T1, human neonatal Fc receptor (hFcRn); experiment: SPR competition pH 5.5
Experimental: (§3) Binding of variant Fc-fragments to human and cynomolgus monkey FcRn was tested using a BIAcore® T100 analysis system (GE Healthcare Bio-Sciences AB Private Limited Liability Company, Uppsala, Sweden) at both pH 5.5 and pH 7.4. The test consisted of incubating various concentrations of the variant Fc-fragments or control Fc-fragments with a fixed amount of human or cynomolgus monkey FcRn under binding conditions and subsequently measuring the amount of free, unbound FcRn in these mixtures by binding to a surface (in a flow cell of a CM5 (Biacore) chip) on which an Fc-fragment was immobilized. […] Thus, the amount of unbound FcRn in the mixture was quantitatively ascertained by surface plasmon resonance through use of the BIAcore® T100 analysis system. […] Initially, a group of 23 variant-Fc-fragments (Fc-5-1 being considered a control) identified in the experiments described above were tested for binding to human FcRn.
(§4) To obtain a reasonable signal for the different molecules and conditions tested, different assay conditions were used. For assays at pH 5.5, 10 nM of human or cynomolgus monkey FcRn was mixed with serial dilutions of the variant and control Fc-fragments being tested (which ranged from 0.1˜2,000 nM) and incubated for 1 hour at room temperature in 10 mM sodium acetate, pH 5.5, 150 mM NaCl, 0.005% P20, 0.1 mg/mL BSA. As positive controls, […] human and cynomolgus monkey FcRn were each incubated in the same solution, for the same time, and at the same temperature described immediately above, but without an added Fc-fragment.

[4] = molecular target: T1, human neonatal Fc receptor (hFcRn); experiment: SPR competition pH 5.5; remark: listed apart in the source
cynomolgus monkey FcRn = molecular target: T2, cynomolgus monkey FcRn (cynomolgus monkey, UniProt Q8SPV9 24-297; Q8SPW0 21-119, limits assumed); experiment: SPR competition pH 5.5
T2 construct: also called Cynomolgus FcRn
Experimental: as §3, §4

T2 sequence (Q8SPV9 24-297 limits assumed, chain 1 of 2): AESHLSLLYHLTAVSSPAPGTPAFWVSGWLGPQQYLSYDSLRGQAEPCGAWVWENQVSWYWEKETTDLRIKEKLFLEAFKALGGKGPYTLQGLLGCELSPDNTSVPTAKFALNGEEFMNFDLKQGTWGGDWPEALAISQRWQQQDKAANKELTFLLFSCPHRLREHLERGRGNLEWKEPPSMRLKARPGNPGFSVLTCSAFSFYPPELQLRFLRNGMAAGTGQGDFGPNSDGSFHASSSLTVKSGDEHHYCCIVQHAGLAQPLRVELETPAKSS
T2 sequence (Q8SPW0 21-119 limits assumed, chain 2 of 2): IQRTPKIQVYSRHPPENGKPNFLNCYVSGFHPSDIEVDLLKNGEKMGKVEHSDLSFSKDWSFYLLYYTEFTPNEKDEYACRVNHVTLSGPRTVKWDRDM

B1: L6B isolate with insertion SEQ ID NO: 410 (other)
chain: EPKSCDKTHTCPPCPAPELLGGPSVFLFPPKPKDTLMISRTPEVTCVVVDVSHEDPEVKFNWYVDGVEVHNAKTKPREEQYNSTYRVVSVLTVLHQDWLNGKEYKCKVSNKALPAPIEKTISKAKGQPREPQVYTLPPSRDELGGCLKGMHGSACGGTKNQVSLTCLVKGFYPSDIAVEWESNGQPENNYKTTPPVLDSDGSFFLYSKLTVDKSRWQQGNVFSCSVMHEALHNHYTQKSLSLSPGK
ELISA score [1]: 68.9
ELISA score [2]: 0.8

B2: L6B isolate with insertion SEQ ID NO: 454 (other)
chain: B1 chain with L147Y, K148G, G149K, M150A, H151G, G152M, S153R, A154D
ELISA score [1]: 50.1
ELISA score [2]: 0.4

B3: L6B isolate with insertion SEQ ID NO: 460 (other)
chain: B1 chain with L147G, K148E, G149Y, M150N, H151Y, G152V, S153G, A154G
ELISA score [1]: 47.2
ELISA score [2]: 0.4

B4: L6B isolate with insertion SEQ ID NO: 471 (other)
chain: B1 chain with K148R, G149N, M150F, H151M, G152K, S153Q, A154S
ELISA score [1]: 42.3
ELISA score [2]: 0.2

B5: L6B isolate with insertion SEQ ID NO: 427 (other)
chain: B1 chain with L147V, K148Q, G149H, M150K, H151M, S153V, A154V
ELISA score [1]: 58.9
ELISA score [2]: 0.8

B6: L6B isolate with insertion SEQ ID NO: 440 (other)
chain: B1 chain with L147N, K148A, G149T, M150L, H151S, S153Y, A154L
ELISA score [1]: 54.9
ELISA score [2]: 0.6

B7: L6B isolate with insertion SEQ ID NO: 457 (other)
chain: B1 chain with L147N, K148Q, G149S, M150S, H151S, G152R, S153E
ELISA score [1]: 49.2
ELISA score [2]: 0.4

B8: L6B isolate with insertion SEQ ID NO: 472 (other)
chain: B1 chain with L147P, K148N, G149D, M150T, H151V, G152R, S153D
ELISA score [1]: 42.2
ELISA score [2]: 0.4

B9: L6B isolate with insertion SEQ ID NO: 473 (other)
chain: B1 chain with L147S, K148F, G149S, M150R, G152M, S153G
ELISA score [1]: 41.8
ELISA score [2]: 0.3

B10: L6B isolate with insertion SEQ ID NO: 468 (other)
chain: B1 chain with L147T, K148L, M150S, H151A, G152P, S153T, A154L
ELISA score [1]: 43.6
ELISA score [2]: 0.2

B11: L6B isolate with insertion SEQ ID NO: 469 (other)
chain: B1 chain with L147E, K148M, G149M, M150K, H151N, G152K, A154G
ELISA score [1]: 43.2
ELISA score [2]: 0.3

B13: variant Fc-fragment Fc-5-106-M4Q (other)
chain: EPKSCDKTHTCPPCPAPELLGGPSVFLFPPKPKDTLMISRTPEVTCVVVDVSHEDPEVKFNWYVDGVEVHNAKTKPREEQYNSTYRVVSVLTVLHQDWLNGKEYKCKVSNKALPAPIEKTISKAKGQPREPQVYTLPPSRDELTKNQVSLTCLVKGFYPSDIAVEWESNGGCVFNQFNCGGGQPENNYKTTPPVLDSDGSFFLYSKLTVDKSRWQQGNVFSCSVMHEALHNHYTQKSLSLSPGK
EC50 [4]: 34 nM

B26: variant Fc-fragment Fc-5-51 (other)
chain: B13 chain with V173H, F174L, N175P, Q176F, F177A, N178V
notes: soluble elsewhere
ELISA score [1]: 82.5
ELISA score [2]: 0.4
EC50 [3]: 16 nM
EC50 (cynomolgus monkey FcRn): 21 nM

B32: L5 isolate with insertion SEQ ID NO: 490 (other)
chain: EPKSCDKTHTCPPCPAPELLGGPSVFLFPPKPKDTLMISRTPEVTCVVVDVSHEDPEVKFNWYVDGVEVHNAKTKPREEQYNSTYRVVSVLTVLHQDWLNGKEYKCKVSNKALPAPIEKTISKAKGQPREPQVYTLPPSRDELTKNQVSLTCLVKGFYPSDIAVEWESNGGCDRQVTGFCGGGQPENNYKTTPPVLDSDGSFFLYSKLTVDKSRWQQGNVFSCSVMHEALHNHYTQKSLSLSPGK
ELISA score [1]: 25
ELISA score [2]: 0.4

Continued, values first:

ELISA score [1]: 54.5
ELISA score [2]: 0.3
EC50 [3]: 190 nM
B12: variant Fc-fragment Fc-5-73 (other)
chain: EPKSCDKTHTCPPCPAPELLGGPSVFLFPPKPKDTLMISRTPEVTCVVVDVSHEDPEVKFNWYVDGVEVHNAKTKPREEQYNSTYRVVSVLTVLHQDWLNGKEYKCKVSNKALPAPIEKTISKAKGQPREPQVYTLPPSRDELTKNQVSLTCLVKGFYPSDIAVEWESNGGCAQQWHHEYCGGGQPENNYKTTPPVLDSDGSFFLYSKLTVDKSRWQQGNVFSCSVMHEALHNHYTQKSLSLSPGK
notes: soluble elsewhere

EC50 [3]: 250 nM
B14: variant Fc-fragment Fc-5-110 (other)
chain: B13 chain with V173W, F174G, N175S, Q176R, F177S, N178Q
notes: library L5 isolate

EC50 [3]: 49 nM
EC50 (cynomolgus monkey FcRn): 53 nM
B15: variant Fc-fragment Fc-5-55 (other)
chain: B13 chain with V173M, F174Q, N175V, Q176W, F177G, N178S
notes: library L5 isolate

EC50 [3]: 42 nM
EC50 (cynomolgus monkey FcRn): 50 nM
B16: variant Fc-fragment Fc-5-95 (other)
chain: B13 chain with V173D, F174R, N175P, Q176V, F177W, N178F
notes: library L5 isolate

ELISA score [1]: 72.7
ELISA score [2]: 0.5
EC50 [3]: 76 nM
B17: variant Fc-fragment Fc-5-96 (other)
chain: B13 chain with V173M, F174Q, N175M, Q176N, F177K, N178W
notes: soluble elsewhere

EC50 [3]: 15 nM
EC50 (cynomolgus monkey FcRn): 16 nM
B18: variant Fc-fragment Fc-5-99 (other)
chain: B13 chain with V173Y, F174I, N175T, F177K, N178L
notes: library L5 isolate

EC50 [3]: 26 nM
EC50 (cynomolgus monkey FcRn): 27 nM
B19: variant Fc-fragment Fc-5-70 (other)
chain: B13 chain with V173M, F174V, N175P, Q176F, F177S, N178M
notes: library L5 isolate

ELISA score [1]: 57.2
ELISA score [2]: 0.4
EC50 [3]: 210 nM
B20: variant Fc-fragment Fc-5-64 (other)
chain: B13 chain with V173H, F174S, N175F, Q176K, F177H, N178F
notes: soluble elsewhere

EC50 [3]: 18 nM
EC50 (cynomolgus monkey FcRn): 25 nM
B21: variant Fc-fragment Fc-5-85 (other)
chain: B13 chain with V173I, F174G, N175P, Q176F, F177W, N178W
notes: library L5 isolate

EC50 [4]: 57 nM
B22: variant Fc-fragment Fc-5-69-W1F (other)
chain: B13 chain with V173F, F174P, N175L, F177D, N178Y
notes: also called Fc-5-69-WIF

ELISA score [1]: 64.1
ELISA score [2]: 0.5
EC50 [3]: 75 nM
B23: variant Fc-fragment Fc-5-92 (other)
chain: B13 chain with V173D, F174G, N175R, Q176T, F177K, N178Y
notes: soluble elsewhere

ELISA score [1]: 57.8
ELISA score [2]: 0.3
EC50 [3]: 180 nM
B24: variant Fc-fragment Fc-5-57 (other)
chain: B13 chain with V173G, F174K, N175H, Q176W, F177H, N178Q
notes: soluble elsewhere

ELISA score [1]: 56.1
ELISA score [2]: 0.7
EC50 [3]: 20 nM
EC50 (cynomolgus monkey FcRn): 27 nM
B25: variant Fc-fragment Fc-5-113 (other)
chain: B13 chain with V173Q, F174G, N175M, Q176W, F177T, N178W
notes: soluble elsewhere

ELISA score [1]: 62.7
ELISA score [2]: 0.4
EC50 [3]: 46 nM
EC50 (cynomolgus monkey FcRn): 49 nM
B27: variant Fc-fragment Fc-5-112 (other)
chain: B13 chain with V173A, F174L, N175Y, Q176P, F177T
notes: soluble elsewhere

EC50 [3]: 67 nM
EC50 (cynomolgus monkey FcRn): 60 nM
B28: variant Fc-fragment Fc-5-60 (other)
chain: B13 chain with V173Q, F174K, N175G, Q176W, F177V, N178F
notes: library L5 isolate

ELISA score [1]: 82.4
EC50 [3]: 15 nM
EC50 (cynomolgus monkey FcRn): 16 nM
B29: variant Fc-fragment Fc-5-104 (other)
chain: B13 chain with V173G, F174H, N175E, Q176Y, F177M, N178W
notes: soluble elsewhere

EC50 [3]: 53 nM
EC50 (cynomolgus monkey FcRn): 63 nM
B30: variant Fc-fragment Fc-5-79 (other)
chain: B13 chain with F174N, N175T, Q176W, F177W, N178S
notes: library L5 isolate

EC50 [3]: 25 nM
EC50 (cynomolgus monkey FcRn): 31 nM
B31: variant Fc-fragment Fc-5-97 (other)
chain: B13 chain with V173N, F174M, N175L, Q176W, F177G, N178S
notes: library L5 isolate
